Experimental data from patent US20220242952A1 (MorphoSys, published 2022).
Values joined by “and” are separate entries in the source; they are usually repeats but may differ in a detail not shown here. Identical values can stand only once.

Experiments:
CD20 [1] = target: CD20 (UniProt P11836); test: cell-based or functional assay
CD20 [2] = target: CD20 (UniProt P11836); test: flow cytometry, QuantiBRITE PE quantitation, MEC-1 (CLL) cells
CD20 [3] = target: CD20 (UniProt P11836); test: flow cytometry, QuantiBRITE PE quantitation, JVM-2 (MCL) cells
CD20 [4] = target: CD20 (UniProt P11836); test: flow cytometry, QuantiBRITE PE quantitation, Toledo (DLBCL) cells
CD19 [5] = target: T1, CD19 (human, UniProt P15391 20-556); test: flow cytometry, QuantiBRITE PE quantitation, MEC-1 (CLL) cells
T1 sequence: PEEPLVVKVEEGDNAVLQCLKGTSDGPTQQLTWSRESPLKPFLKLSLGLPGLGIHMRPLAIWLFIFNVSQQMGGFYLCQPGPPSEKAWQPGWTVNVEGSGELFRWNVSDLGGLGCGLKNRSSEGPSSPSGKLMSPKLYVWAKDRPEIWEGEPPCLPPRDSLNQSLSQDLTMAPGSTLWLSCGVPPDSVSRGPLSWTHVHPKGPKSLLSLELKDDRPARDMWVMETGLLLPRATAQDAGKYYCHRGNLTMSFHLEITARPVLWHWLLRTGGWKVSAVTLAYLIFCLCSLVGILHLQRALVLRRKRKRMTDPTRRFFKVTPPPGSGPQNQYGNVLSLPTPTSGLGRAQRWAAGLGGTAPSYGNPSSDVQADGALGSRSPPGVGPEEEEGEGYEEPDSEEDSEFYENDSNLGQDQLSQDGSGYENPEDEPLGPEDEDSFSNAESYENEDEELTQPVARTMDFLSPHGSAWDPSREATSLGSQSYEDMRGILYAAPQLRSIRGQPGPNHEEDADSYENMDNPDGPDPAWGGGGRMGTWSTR

CD19 [6] = target: T1, CD19; test: flow cytometry, QuantiBRITE PE quantitation, JVM-2 (MCL) cells
CD19 [7] = target: T1, CD19; test: flow cytometry, QuantiBRITE PE quantitation, Toledo (DLBCL) cells
CD19 [8] = target: T1, CD19; test: cell-based or functional assay

Sequence of CD20 (P11836 whole entry): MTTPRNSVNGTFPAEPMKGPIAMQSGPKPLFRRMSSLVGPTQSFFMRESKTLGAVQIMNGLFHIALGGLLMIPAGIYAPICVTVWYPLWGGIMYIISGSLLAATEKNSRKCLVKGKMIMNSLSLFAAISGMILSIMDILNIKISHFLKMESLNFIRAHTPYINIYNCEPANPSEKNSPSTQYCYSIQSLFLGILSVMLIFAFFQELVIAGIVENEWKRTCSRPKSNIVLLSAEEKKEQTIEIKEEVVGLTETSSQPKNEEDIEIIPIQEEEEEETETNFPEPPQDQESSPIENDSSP

Rituximab (antibody)
% specific killing, ADCC with NK cells, JVM-2 cells, E:T 0.1:1, 10 ug/ml antibody (CD20 [1]): 0.5% | % specific killing, ADCC with NK cells, JVM-2 cells, E:T 3:1 and 6:1, 10 ug/ml antibody (CD20 [1]): 39% and 48% | % specific killing, ADCC with NK cells, MEC-1 cells, E:T 0.1:1, 10 ug/ml antibody (CD20 [1]): 3% | % specific killing, ADCC with NK cells, Toledo cells, E:T 0.1:1, 10 ug/ml antibody (CD20 [1]): 3% | % specific killing, ADCC with NK cells, Toledo cells, the two higher E:T ratios, 10 ug/ml antibody (CD20 [1]): 60%

Biolegend CD20-PE (Biolegend #302306; clone 2H7) (antibody)
antibodies bound per cell (ABC) (antibodies bound per cell) (CD20 [2]): 71300 | antibodies bound per cell (ABC) (antibodies bound per cell) (CD20 [3]): 15500 | antibodies bound per cell (ABC) (antibodies bound per cell) (CD20 [4]): 28000

Biolegend CD19-PE (Biolegend #302208; clone HIB19) (antibody)
antibodies bound per cell (ABC) (antibodies bound per cell) (CD19 [5]): 60900 | antibodies bound per cell (ABC) (antibodies bound per cell) (CD19 [6]): 26200 | antibodies bound per cell (ABC) (antibodies bound per cell) (CD19 [7]): 35700

B1: MOR00208 (antibody, human IgG1, kappa, V domains shown)
VH: EVQLVESGGGLVKPGGSLKLSCAASGYTFTSYVMHWVRQAPGKGLEWIGYINPYNDGTKYNEKFQGRVTISSDKSISTAYMELSSLRSEDTAMYYCARGTYYYGTRVFDYWGQGTLVTVSS
VL: DIVMTQSPATLSLSPGERATLSCRSSKSLQNVNGNTYLYWFQQKPGQSPQLLIYRMSNLNSGVPDRFSGSGSGTEFTLTISSLEPEDFAVYYCMQHLEYPITFGAGTKLEIKR
% specific killing, ADCC with NK cells, Toledo cells, the two higher E:T ratios, 10 ug/ml antibody (CD19 [8]): ~60% | specific killing ratio compared to Rituximab, individual donor 296, JVM-2 cells, lowest E:T ratio (CD19 [8]): ≤ 20 fold | specific killing ratio compared to Rituximab, individual donor 299, Toledo cells, lowest E:T ratio (CD19 [8]): ≤ 30 fold | specific killing ratio normalized to Rituximab, JVM-2 cells, E:T 0.1:1, median of donors (CD19 [8]): 5.3 fold | specific killing ratio normalized to Rituximab, Toledo cells, E:T 0.1:1, median of donors (CD19 [8]): 2.5 fold | specific killing ratio over Rituximab, MEC-1 cells, E:T 0.1:1, average of 17 donors (CD19 [8]): 1.6 fold
